Patent publication US20010052137

Legend:
[1] = system: Myc-tagged full length Xenopus axin (FL Xaxin, amino acid residues 1-842)
[2] = system: T1, Myc-tagged GID-1 fragment of Xaxin (amino acid residues 277-545)
T1 sequence: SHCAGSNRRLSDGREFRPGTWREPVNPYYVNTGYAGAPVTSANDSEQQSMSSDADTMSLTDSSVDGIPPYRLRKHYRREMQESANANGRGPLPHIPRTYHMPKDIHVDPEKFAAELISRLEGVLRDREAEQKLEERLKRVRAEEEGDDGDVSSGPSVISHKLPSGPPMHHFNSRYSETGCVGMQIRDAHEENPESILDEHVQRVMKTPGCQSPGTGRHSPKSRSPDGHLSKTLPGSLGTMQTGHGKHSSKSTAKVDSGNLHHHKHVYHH

[3] = system: Myc-tagged deltaGID construct of Xaxin (amino acid residues 1-324 fused to residues 504-842)
[4] = system: Myc-tagged deltaDIX construct of Xaxin (amino acid residues 1-778)
[5] = system: Myc-tagged N-term fragment of Xaxin (amino acid residues 63-288)
[6] = system: T2, Myc-tagged C-term fragment of Xaxin (amino acid residues 429-713)
T2 sequence: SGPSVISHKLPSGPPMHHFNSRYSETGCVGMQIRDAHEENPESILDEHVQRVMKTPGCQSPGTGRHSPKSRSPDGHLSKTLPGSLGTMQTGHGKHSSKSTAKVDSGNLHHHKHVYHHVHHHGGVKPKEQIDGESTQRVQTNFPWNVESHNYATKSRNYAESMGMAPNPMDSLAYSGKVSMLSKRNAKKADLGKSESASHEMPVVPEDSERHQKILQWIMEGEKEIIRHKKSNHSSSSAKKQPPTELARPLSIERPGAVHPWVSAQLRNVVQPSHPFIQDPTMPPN

[7] = system: T3, Myc-tagged deltaRGS construct of Xaxin (amino acid residues 1-80 fused to residues 290-842)
T3 sequence: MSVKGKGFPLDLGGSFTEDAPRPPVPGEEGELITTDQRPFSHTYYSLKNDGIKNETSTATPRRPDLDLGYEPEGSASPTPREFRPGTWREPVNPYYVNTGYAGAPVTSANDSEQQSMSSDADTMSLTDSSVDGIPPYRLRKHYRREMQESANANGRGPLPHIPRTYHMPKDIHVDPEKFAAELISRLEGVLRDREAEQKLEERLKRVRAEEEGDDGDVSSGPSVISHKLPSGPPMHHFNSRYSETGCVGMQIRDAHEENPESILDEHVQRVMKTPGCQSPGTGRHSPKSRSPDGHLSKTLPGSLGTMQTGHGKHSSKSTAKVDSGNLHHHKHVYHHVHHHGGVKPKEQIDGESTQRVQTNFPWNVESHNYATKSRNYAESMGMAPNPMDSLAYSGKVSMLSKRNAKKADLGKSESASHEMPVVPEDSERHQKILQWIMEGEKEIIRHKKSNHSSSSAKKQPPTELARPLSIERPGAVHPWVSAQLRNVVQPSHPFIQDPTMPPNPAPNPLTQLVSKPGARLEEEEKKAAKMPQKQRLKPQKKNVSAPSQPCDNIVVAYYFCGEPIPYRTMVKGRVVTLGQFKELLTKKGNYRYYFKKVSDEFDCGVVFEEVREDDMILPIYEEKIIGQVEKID

Myc-tagged N-term fragment of Xaxin (amino acid residues 63-288), sequence (chain, as listed by the source): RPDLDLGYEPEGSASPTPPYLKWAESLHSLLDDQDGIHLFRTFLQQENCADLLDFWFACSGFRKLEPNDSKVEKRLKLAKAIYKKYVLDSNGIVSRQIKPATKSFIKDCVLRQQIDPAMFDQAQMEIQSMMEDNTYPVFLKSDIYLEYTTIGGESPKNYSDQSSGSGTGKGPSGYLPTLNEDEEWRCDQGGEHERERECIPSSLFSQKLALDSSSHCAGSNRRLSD

Substance: GSK-3 beta (glycogen synthase kinase-3 beta) expressed in Xenopus oocytes
- GSK-3 beta-mediated tau phosphorylation in Xenopus oocytes (PHF-1 immunoblot) [1]: had no discernible effect on tau phosphorylation
- GSK-3 beta mediated tau phosphorylation in Xenopus oocytes [2]: bound GSK-3 beta and inhibited GSK-3 beta mediated tau phosphorylation
- GSK-3 beta-mediated tau phosphorylation in Xenopus oocytes (PHF-1 immunoblot) [2]: virtually complete inhibition of GSK-3 beta-mediated tau phosphorylation
- GSK-3 beta activity in the tau-phosphorylation assay in Xenopus oocytes [3]: had no discernible effect on GSK-3 beta activity in the tau-phosphorylation assay
- GSK-3 beta activity (tau phosphorylation assay in Xenopus oocytes) [4]: partially inhibited GSK-3 beta activity
- GSK-3 beta-mediated tau phosphorylation in Xenopus oocytes (PHF-1 immunoblot) [5]: had no effect on GSK-3 beta activity
- GSK-3 beta-mediated tau phosphorylation in Xenopus oocytes (PHF-1 immunoblot) [6]: had no effect on GSK-3 beta activity
- tau protein phosphorylation mediated by GSK-3 beta in Xenopus oocytes [7]: inhibited tau protein phosphorylation mediated by GSK-3 beta in a dose-dependent manner
